Assays:
M2 macrophages [1] = assay: Flow cytometry of FITC-conjugated melittin on THP-1-derived M0, M1 and M2 macrophages; format: cell-based, human; conditions: 50 nM FITC-conjugated melittin, 1 hour; M2 macrophages compared to the other macrophage types
Description: To confirm whether the melittin fabricated in Example 1 specifically bound to M2 tumor-associated macrophages (M2 TAMs), a human monocyte cell line THP-1 was differentiated into M0, M1, and M2 macrophages, and treated with FITC-conjugated melittin, and then confirmed by flow cytometry. Specifically, THP-1 cells were treated with 100 nM phorbol 12-myristate 13-acetate (PMA) at 37° C. for 24 hours (M0 macrophages), and the differentiated M0 macrophages were incubated with 100 nM LPS and 20 ng/ml IFN-γ at 37° C. for 72 hours to be differentiated into M1 macrophages (M1), and incubated with 20 ng/ml IL-4 and IL-13 at 37° C. for 72 hours to be differentiated into M2 macrophages (M2). The differentiated cells were treated with 50 nM FITC-conjugated melittin for 1 hour, detected with BD FACS CantoII instruments (BD biosciences, San Jose, CA, USA), and analyzed with FlowJo software (BD biosciences).

[2] = test system: M2 macrophages in which ITGB2 expression was suppressed by Crispr/cas9; assay: CCK-8 cell viability in M2 macrophages with ITGB2 expression suppressed by Crispr/cas9; format: cell-based, human; conditions: Melittin-dKLA 1 μM, ITGB2 knocked down M2 macrophages
Description: As a cell model used to confirm whether apoptosis was induced through ITGB2 in M2 macrophages, a cell model in which the expression of ITGB2 was suppressed in M2 macrophages was fabricated using Crispr/cas9. Specifically, cells differentiated into M2 macrophages were cultured in an Opti-MEM medium. The Crispr/cas9 was mixed with Cas9 protein V2 (Thermo Fisher scientific) and gRNA (Genscript; ITGB2; Table 7) of a CRISPRMAX™ Reagent kit (Thermo Fisher scientific) and a Cas9 Plus™ Reagent (Thermo Fisher scientific), and a CRISPRMAX™ Reagent was diluted in the Opti-MEM medium, mixed together, and reacted for 5 to 10 minutes, and then added to cells differentiated into M2 macrophages and cultured at 37° C. for 2 to 3 days. Thereafter, the mRNA expression level of ITGB2 was confirmed.
To confirm whether Melittin-dKLA bound to ITGB2 to induce apoptosis in M2 macrophages, Melittin-dKLA (1 μM) was treated for 24 hours to M2 macrophages in which ITGB2 expression was suppressed by Crispr/cas9 fabricated in Example 7-1 above, and cell viability was analyzed using a CCK-8 assay. Specifically, Melittin-dKLA (1 μM) reacted with ITGB2 knockdown macrophages fabricated in Example 7-1 above for 1 hour. After the reaction, the medium was replaced and cultured at 37° C. for 24 hours. […] Absorbance was measured at 450 nm using a microplate reader (Molecular Devices). […]

M2 macrophages [3] = assay: CCK-8 cell viability in M2 macrophages; format: cell-based, human; conditions: Melittin-dKLA 1 μM, control M2 macrophages
Description: To confirm whether Melittin-dKLA bound to ITGB2 to induce apoptosis in M2 macrophages, Melittin-dKLA (1 μM) was treated for 24 hours to M2 macrophages in which ITGB2 expression was suppressed by Crispr/cas9 fabricated in Example 7-1 above, and cell viability was analyzed using a CCK-8 assay. Specifically, Melittin-dKLA (1 μM) reacted with ITGB2 knockdown macrophages fabricated in Example 7-1 above for 1 hour. After the reaction, the medium was replaced and cultured at 37° C. for 24 hours. To determine cell viability, a CCK-8 reagent (Enzo Life Sciences) was added in 1/10 of the medium and reacted at 37° C. for 3 hours. Absorbance was measured at 450 nm using a microplate reader (Molecular Devices).
To confirm whether TB511 (TAMpep826-dKLA) induced apoptosis through ITGB2 in M2 macrophages, TB511 reacted with M2 macrophages in which ITGB2 expression was suppressed by Crispr/cas9 fabricated in Example 7-1.

[4] = molecular target: ITGB2 protein immobilised on the SPR sensor chip (UniProt P05107)
ITGB2 protein immobilised on the SPR sensor chip, sequence (P05107 23-700 limits assumed): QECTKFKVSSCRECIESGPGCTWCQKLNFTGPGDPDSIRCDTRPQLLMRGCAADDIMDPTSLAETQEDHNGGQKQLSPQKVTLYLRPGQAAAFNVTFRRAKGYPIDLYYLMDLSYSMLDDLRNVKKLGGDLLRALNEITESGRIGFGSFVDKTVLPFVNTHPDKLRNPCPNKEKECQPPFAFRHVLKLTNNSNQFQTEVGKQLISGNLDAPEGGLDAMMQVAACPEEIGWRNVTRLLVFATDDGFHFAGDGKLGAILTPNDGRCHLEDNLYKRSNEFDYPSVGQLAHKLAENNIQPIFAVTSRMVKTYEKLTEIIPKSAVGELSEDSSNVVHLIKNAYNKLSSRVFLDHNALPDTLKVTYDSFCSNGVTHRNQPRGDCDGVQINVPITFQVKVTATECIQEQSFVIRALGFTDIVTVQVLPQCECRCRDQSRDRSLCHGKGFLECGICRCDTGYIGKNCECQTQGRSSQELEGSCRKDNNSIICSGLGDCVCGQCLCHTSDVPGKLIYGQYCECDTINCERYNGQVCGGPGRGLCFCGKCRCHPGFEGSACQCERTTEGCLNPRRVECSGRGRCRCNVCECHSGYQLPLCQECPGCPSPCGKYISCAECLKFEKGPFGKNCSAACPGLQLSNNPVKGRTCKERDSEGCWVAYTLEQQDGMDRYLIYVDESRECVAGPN

## CC[C@H](C)[C@H](NC(=O)CN)C(=O)NCC(=O)N[C@@H](C)C(=O)N[C@H](C(=O)N[C@@H](CC(C)C)C(=O)N[C@@H](CCCCN)C(=O)N[C@H](C(=O)N[C@@H](CC(C)C)C(=O)N[C@H](C(=O)N[C@H](C(=O)NCC(=O)N[C@@H](CC(C)C)C(=O)N1CCC[C@H]1C(=O)N[C@@H](C)C(=O)N[C@@H](CC(C)C)C(=O)N[C@H](C(=O)N[C@@H](CO)C(=O)N[C@@H](Cc1c[nH]c2ccccc12)C(=O)N[C@H](C(=O)N[C@@H](CCCCN)C(=O)N[C@@H](CCCNC(=N)N)C(=O)N[C@@H](CCCCN)C(=O)N[C@@H](CCCNC(=N)N)C(=O)N[C@@H](CCC(N)=O)C(=O)N[C@@H](CCC(N)=O)C(N)=O)[C@@H](C)CC)[C@@H](C)CC)[C@@H](C)O)[C@@H](C)O)C(C)C)C(C)C [Melittin]
M2 macrophages [1]
  FITC-positive cells: significantly increased

## GIGAVLKVLTTGLPALISWIKRKRQQ-GGGGS-d[KLAKLAKKLAKLAK] (SEQ ID NO: 5), peptide with linker and drug dKLA attached to melittin [Melittin-dKLA]
[2]
  cell viability: the decrease in cell viability by Melittin-dKLA was suppressed
M2 macrophages [3]
  cell viability: significantly reduced

## Melittin-dKLA (peptide)
[4]
  Ka: 1.27e+07 M⁻¹
  Kd: 78.6 nM
  koff: 0.00381 s⁻¹
  kon: 48500 M⁻¹ s⁻¹
